Reference: paper PMC5148603

Key:
[1] = target: T1, bovine lipoprotein lipase (bovine) (UniProt P11151); settings: scale: molecules of LPL per ANGPTL4 molecule per min
T1 sequence: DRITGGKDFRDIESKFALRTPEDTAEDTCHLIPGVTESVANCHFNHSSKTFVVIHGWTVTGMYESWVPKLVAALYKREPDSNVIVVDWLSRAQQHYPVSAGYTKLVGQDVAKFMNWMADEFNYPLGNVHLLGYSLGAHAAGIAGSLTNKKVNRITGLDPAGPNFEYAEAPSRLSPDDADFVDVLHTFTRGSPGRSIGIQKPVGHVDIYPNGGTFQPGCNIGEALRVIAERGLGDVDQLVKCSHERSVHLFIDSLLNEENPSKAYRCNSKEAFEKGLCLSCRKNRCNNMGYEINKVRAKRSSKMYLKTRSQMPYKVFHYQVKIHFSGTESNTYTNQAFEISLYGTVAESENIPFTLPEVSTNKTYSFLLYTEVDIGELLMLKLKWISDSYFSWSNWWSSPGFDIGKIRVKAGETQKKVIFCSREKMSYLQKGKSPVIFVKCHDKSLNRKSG

[2] = target: coiled-coil domain of wild-type human ANGPTL4 (residues 1–159) (human); test: SDS-PAGE before and after reduction (disulfide-linked oligomers); Coomassie blue-stained gel of purified ANGPTL4 1–159 before and after reduction and alkylation; optical scanning of lanes of two-fold serial dilutions
[3] = target: T1, bovine lipoprotein lipase (bovine); settings: scale: molecules LPL per ANGPTL4 molecule per min

coiled-coil domain of wild-type human ANGPTL4 (residues 1–159) (domain or fragment)
catalytic efficacy of unfolding of LPL's hydrolase domain (pulse-labelling HDX-MS, bimodality of peptide 131–165); 10 µM LPL with 0.25, 0.5 and 1 µM ANGPTL4 1–159, 25°C, early time points [1]: 1.6
percent of the total protein that is covalent (disulfide-linked) dimer [2]: 10%
stoichiometry N [2]: 2

B1: coiled-coil domain of human ANGPTL4 E15K (residues 1–159) (domain or fragment)
chain: MGPVQSKSPRFASWDKMNVLAHGLLQLGQGLREHAERTRSQLSALERRLSACGSACQGTEGSTDLPLAPESRVDPEVLHSLQTQLKAQNSRIQQLFHKVAQQQRHLEKQHLRIQHLQSQFGLLDHKHLDHEVAKPARRKRLPEMAQPVDPAHNVSRLHRL
catalytic efficacy of unfolding of LPL's hydrolase domain (pulse-labelling HDX-MS, peptide 131–165); 10 µM LPL with 0.5, 1 and 2 µM ANGPTL4 1–159/E15K, 25°C, linear phases of the progress curves [3]: 0.6
